This is an account of results in patent US20170211072A1 (COLD SPRING HARBOR LABORATORY, published 2017).

Experiment [1] has as its target T1, empty GST proteins (UniProt P08515 1-218 = GST).
T1 construct: Negative control of the pull-down
In words: GST pull-down with purified proteins.

The target of experiment [2] is T2, p53Ψ (Homo sapiens (Human), UniProt P04637 1-225).
T2 construct: Whole p53Ψ isoform expressed ectopically in A549 cells; It was tested in submitochondrial fractions by co-immunoprecipitation; also called p53-psi; p53Ψ isoform
In words: co-immunoprecipitation from submitochondrial fractions, immunoblot.

Experiment [3] concerns the target T2, p53Ψ. The experiment in a line: co-immunoprecipitation from submitochondrial fractions with an anti-p53 N-terminal antibody, immunoblot.

T1 sequence (P08515 whole entry): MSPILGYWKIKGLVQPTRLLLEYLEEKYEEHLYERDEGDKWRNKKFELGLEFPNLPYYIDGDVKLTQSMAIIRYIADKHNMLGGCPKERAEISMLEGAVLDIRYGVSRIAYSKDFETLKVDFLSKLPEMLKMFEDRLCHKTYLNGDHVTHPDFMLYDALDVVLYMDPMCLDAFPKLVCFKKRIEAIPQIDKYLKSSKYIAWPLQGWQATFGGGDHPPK

B1: purified p53Ψ (aa 102-243) (other)
chain: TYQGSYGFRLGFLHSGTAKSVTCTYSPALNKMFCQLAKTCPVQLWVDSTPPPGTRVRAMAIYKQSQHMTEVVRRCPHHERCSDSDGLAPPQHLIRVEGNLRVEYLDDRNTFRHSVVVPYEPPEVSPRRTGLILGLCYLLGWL
notes: Purified recombinant fragment used in the GST pull-down; also called recombinant p53Ψ
As to B1, the binding result in experiment [1] was “no binding”.

B2: BAK (other, UniProt Q16611 2-211, looked up)
chain: ASGQGPGPPRQECGEPALPSASEEQVAQDTEEVFRSYVFYRHQQEQEAEGVAAPADPEMVTLPLQPSSTMGQVGRQLAIIGDDINRRYDSEFQTMLQHLQPTAENAYEYFTKIATSLFESGINWGRVVALLGFGYRLALHVYQHGLTGFLGQVTRFVVDFMLHHCIARWIAQRGGWVAALNLGNGPILNVLVVLGVVLLGQFVVRRFFKS
In the case of B2, the binding result in experiment [2] is given as “no binding”.

B3: MnSOD (enzyme, UniProt P04179 25-222, looked up)
chain: KHSLPDLPYDYGALEPHINAQIMQLHHSKHHAAYVNNLNVTEEKYQEALAKGDVTAQIALQPALKFNGGGHINHSIFWTNLSPNGGGEPKGELLEAIKRDFGSFDKFKEKLTAASVGVQGSGWGWLGFNKERGHLQIAACPNQDPLQGTTGLIPLLGIDVWEHAYYLQYKNVRPDYLKAIWNVINWENVTERYMACKK
notes: Endogenous protein of A549 cells, a human cell line; also called SOD2
In the case of B3, in experiment [3], the binding result is given as “no binding”.
